Measurements: patent publication US11013783B2, “Anti-inflammatory peptides and methods for treating inflammatory diseases” (INSTITUT NATIONAL DE LA RECHERCHE AGRONOMIQUE (INRA), priority 2012, dated 2021)

Experiments:
[1] = system: IL-8 production by HT29-MTX cells stimulated by TNFα; assay: IL-8 production of HT29-MTX cells incubated with peptides and stimulated by TNFα; format: cell-based; conditions: FIG. 4
Protocol: The inventors then incubated mucus secreting intestinal epithelial HT29-MTX cells with two peptide fragments obtained from the protein ZP05614546.1.
The inventors measured the IL-8 production (as a marker of inflammation) after stimulation of HT29-MTX cells incubated or not with said peptides and stimulated by TNFα.

NFκB signaling pathway = assay: NFκB luciferase reporter system in HEK 293T cells transfected with pCMV plasmids (Carma-1-dependent activation); format: cell-based, human; conditions: for NFκB signaling pathway inhibition (%): HEK 293T NFκB reporter, proteins cloned in 3× Flag (C-term) pCMV vector, table I
Excerpt: In order to further analyze the activity of the polypeptides of the invention, the inventors decided to transfect the protein-coding cDNA directly into mammalian epithelial cell model.
The sequence of the protein ZP05614546.1 (SEQ ID NO: 2) has been cloned in 3× Flag (C-term) pCMV vector.
In order to test the NFκB signaling pathway inhibiting activity from the orthologs of ZP05614546.1, the other protein sequences from FIG. 3 were also cloned in 3× Flag (C-term) pCMV vector and tested in the NFκB reporter system in human epithelial cells HEK 293T.
So as to better quantify the anti-inflammatory properties of ZP05614546.1 and orthologs, increasing quantity of pCMV plasmid (i.e. 50, 25 and 12.5 ng) containing SEQ ID NO: 2 and SEQ ID NO: 4 were used to transfected HEK293 cell line. Then, the evolution of NFκB signaling pathway expression was determined as previously. […] Accordingly, the SEQ ID NO: 4 from the strain M21/2 is 100% (2 fold) more efficient in inhibiting NFκB signaling pathway than the protein ZP05614546.1.
In order to further analyze the activity of the polypeptides of the invention, the inventors decided to clone into the previously described pCMV plasmid, the sequences corresponding to amino acids 23-135 of SEQ ID NO: 2 (Mut 1), 1-39/72-135 of SEQ ID NO: 2 (Mut 2), 1-99 of SEQ ID NO: 2 (Mut 3), 35-77 of SEQ ID NO: 2 (p35-′7′7) and . . . - . . . of SEQ ID NO: 2 from MAM from F. prausnitzii strain A2-165. The four constructs, Mut 1, Mut 3, p35-77 and p49-70 carry the peptide 1-5.

[2] = system: LPS-dependent NFκB activation; assay: LPS-dependent NFκB activation in HEK293T cells stably expressing TLR4, MD2 and CD14, NFκB luciferase reporter; format: cell-based; conditions: FIG. 2
colonic inflammation = assay: Colonic inflammation model in mice treated daily orally with L. lactis expressing the protein; format: in vivo, C57B16 mice; conditions: M21/2 data not shown
Protocol: C57B16 mice (6-8 weeks old) are kept at room temperature, under 12 h light/dark cycles and having free access to food and water, except the day before the induction of colitis, where they are fasted for 12 h.
Colonic inflammation is induced by treatments with Dextran Sodium Sulfate […]. In details, DSS is dissolved in drinking water (3 or 5% wt/vol) and the animals are free to drink this solution for 7-days. Water consumption is measured in the DSS-treated groups and compared to groups of naïve mice drinking water: no difference is observed for the volume of liquid consumed, between water and DSS-drinking mice. Mice are treated daily orally, with 200 μL of 1 to 5.10^9 colony forming units (cfu) of strains to be tested or bacterial milieu alone—i.e. L. lactis expressing the protein ZP 05614546.1 (Accession number changed to WP_005932151), its ortholog of strain M21/2 (SEQ ID NO: 4) or no protein-. […] Body weight and survival rate are measured daily after the induction of colitis (or right after the first gavage, in case of preventive treatment). DAI (disease activity index is also measured):
On day 7 after adding DSS to their drinking water, mice are sacrificed and colons are harvested for measure of several parameters of inflammation: bowel thickness and length, myeloperoxydase (MPO) activity, cytokine expression (IL-17A, IFN-γ, IL10, IL12p70 or other cytokines) can be measured. […]

K G N T F L Q S T I N R T I G V L (KGNTFLQSTINRTIGVL; listed as Faecalibacterium prausnitzii) [SEQ ID NO: 47, peptide fragment of ZP05614546.1, region between positions 53 and 68]
anti-inflammatory effect (IL-8 production as a marker of inflammation) [1]: anti-inflammatory effect in a dose dependent manner

VKGNPIEKNNFGDYAMNALGIAAAVYNLGVAPTKNTVKETEVKFTV (VKGNPIEKNNFGDYAMNALGIAAAVYNLGVAPTKNTVKETEVKFTV; listed as Faecalibacterium prausnitzii) [SEQ ID NO: 48, peptide fragment of ZP05614546.1, region between positions 90 and 135]
anti-inflammatory effect (IL-8 production as a marker of inflammation) [1]: anti-inflammatory effect in a dose dependent manner

B1: ZP05614546.1: conserved hypothetical protein of F. prausnitzii strain A2-165 (protein, listed as Faecalibacterium prausnitzii)
chain: MMMPANYSVIAENEMTYVNGGANFIDAIGAVTAPIWTLDNVKTFNTNIVTLVGNTFLQSTINRTIGVLFSGNTTWKEVGNIGKNLFGTNVKGNPIEKNNFGDYAMNALGIAAAVYNLGVAPTKNTVKETEVKFTV
NFκB signaling pathway inhibition (%) (NFκB signaling pathway): 58 ± 6% | inhibition of Carma-1-dependent NFκB activation (NFκB signaling pathway; HEK293T cells, NFκB luciferase reporter, FIG. 1): inhibits Carma-1-dependent NFκB activation | inhibition of NFκB signaling pathway (NFκB signaling pathway; NFκB reporter system in human epithelial cells HEK 293T, protein cDNA transfected in pCMV vector): inhibits the NFκB signaling pathway in a dose-dependent manner | inhibition of LPS-dependent NFκB activation [2]: inhibits the LPS-dependent NFκB activation | reduction of colonic inflammation (colonic inflammation): significantly reduce colonic inflammation

B2: KLE1255: ortholog of ZP05614546.1 from strain KLE1255 (protein, listed as Faecalibacterium prausnitzii)
chain: MMMPANFSAVAENEMTYVVGGSLVDVLAPAMTTANWQNVSANVIKIVGNSFLAKYTNDVLAQLFDGNYVPGDVIGYSVKNLDKAYNKGYGTFGGNWGFAVGALNAGMQILGGLSAIYTLGSSSIGLETKSGTLPTL
NFκB signaling pathway inhibition (%) (NFκB signaling pathway): 72 ± 1%

B3: M21/2: ortholog of ZP05614546.1 from strain M21/2 (protein, listed as Faecalibacterium prausnitzii)
chain: MMMPANFSAVSENEMTYVMGGSVADYLAPAMGAAQWQNFHKNLITIVGNKYVQGFLDNTVGAMFSGTWTPGDGLTGFGGQFSTIWKKNYTDNVTDESTGAQKFGYGALGVVNSILNVAGNLAAIYNLGFGTAKNIVGEGVYKA
efficiency in inhibiting NFκB signaling pathway relative to protein ZP05614546.1 (NFκB signaling pathway; 50, 25 and 12.5 ng pCMV plasmid, Carma-1-dependant NF-kB activation, HEK293T, FIG. 9): 2 fold | NFκB signaling pathway inhibition (%) (NFκB signaling pathway): 90 ± 3% | reduction of colonic inflammation (colonic inflammation): upper than the one observed with ZP 05614546.1 protein

B4: CNCM4573: ortholog of ZP05614546.1 from strain CNCM-4573 (protein, listed as Faecalibacterium prausnitzii)
chain: MMMPANFSAVSENEMTYVMGGSIADYLAPAMGAAQWQNFHKNLVTIVGNKYVQGFLDNTVGAVFSGTWTPGVGLTGFGGQFSTIWKKNYTDNVTDESTGAQKFGYGALGVVNSILNVAGNLAAIYNLGFGTAKNIVGEGVYKA
NFκB signaling pathway inhibition (%) (NFκB signaling pathway): 89 ± 2%

B5: SL3/3: ortholog of ZP05614546.1 from strain SL3/3 (protein, listed as Faecalibacterium prausnitzii)
chain: MMMPANFSAVSENEMTYVMGGSVADYLAPAMGAAQWQNFHKNLITIVGNKYVQGFLDNTVGAVFSGTWTPGDGLTGFGGQFSKIWKDNYTDNVTGESTGAQKFGYGALGVVNSILNVAGNLAAIYNLGFGTAKNIVGEGVYKA
NFκB signaling pathway inhibition (%) (NFκB signaling pathway): 86 ± 5%

B6: L2-62: ortholog of ZP05614546.1 from strain L2-62 (protein, listed as Faecalibacterium prausnitzii)
chain: MMMPANFSAVNAEVVYGGAVADYLPSAWTAESVKRFNSNIITLVSNSFTSHLLKATLGTMFSGSWGSDGVTLFGDNGTFSGLYNVNRLPGGEAQTFGNKIMTTLGLASVVYTLGMKDAAVLTAKKVTNSNGQVWGDLPNNGGSGWVG
NFκB signaling pathway inhibition (%) (NFκB signaling pathway): 34 ± 5%
